Test results taken from publication PMC11808123.

Legend:
[1] = target: Recombinant CDK2 (human, full length), biotinylated (human) (UniProt P24941); assay: BLI; no drug; details: domain or fragment
[2] = target: Recombinant CDK2 (human, full length), biotinylated (human) (UniProt P24941); assay: BLI; with 100 nM INX-315; details: domain or fragment

Substance: Recombinant cyclin A (human Cyclin A, residues 173-465)
- Kd [1]: 0.57 nM
- koff [1]: 0.00011 s⁻¹
- Kd [2]: 0.24 nM
- koff [2]: 5e-05 s⁻¹
